Measured values reported in the nanobody polyreactivity screen of Harvey et al. (2022).

Test: yeast display, Sf9 membrane polyspecificity reagent, FACS + sequencing; frameworks hold sequencing errors
Method in brief: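 Using colony PCR, genes from sorted yeast display clones were amplified, then sequenced on MiSeq at 2 × 250 and filtered by CDR length. The clones had been stained with 10% biotinylated, detergent-solubilized Sf9 membrane reagent for 1 hour at 4 °C and sorted by FACS into low and high (top ~1%) gates on anti-HA and streptavidin fluorescence. Polyreactivity labels come from the gate of origin.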

Sequence	polyreactivity (PSR sort gate)
QVHLVESGGGLVQAGGSLRLICAASGYTFAFYAMGCYRQAPGKERELVAAISAGGGRTYYADSVKGRFTISRDNANNTVYLQMNSLKPEDTAVYYCATDLIQGAAPFRYDYWGQGTQVTVSS	low polyreactivity
QVQLVESGGGLVQAGGSLRLSCAASGSISGLYAMGWYRQAPGKERELVARIRWRGDSTYYADSVKGRFTISRDNAKNTVYLQMNSLNPEDTAVYYCAASAYSGKVNKYNYWGQGTQVTVSS	high polyreactivity
QVQLVESGGGLVQAGGSLRLSCAASGFIFSVYAMGWYRQAPGKERELVAVISTSGGRTYYADSVKGRFTISRDNAKNTVYLQMNSLKPEDTAVYYCAADGFQYTLGNYYWGQGTQVTVSS	high polyreactivity
QVQLVESGGGLVQAGGSLRLSCAASGRIFSSNVMGWYRQAPGKERELVAAITVTGGSTYYAYSVKGRFTISRDNAKYTVYLLMNSLNPEDTAVYFCAARVKGRFPYDYWGQGSQVTVSS	low polyreactivity
QVQLVESGRGKVQAGGSLRLSCAASGFTFRGNAMGWYRQAPGKERELVAAITSSGGRTYYADSVKGRFTISRDNAKNTVYLQMNSLKPEDTAVYYCAARYAYPSRYYYWGQGTQVTVSS	high polyreactivity
QVQLVESGGGLVQAGGSLRLSCAASGNIFIRYAMGWYRQAPGKERDLVAAISQSGGGTSYADSVKGRFTISRDNAKNTVYLQMNSLKPEDTAVYYCNARYWRYPWRFGAWVGHDYWGQGTQVTVSS	low polyreactivity
QVQLVESGGGLVQAGGSLRLSCAASGIIFYVYAMGWYRQAPGKERELVAAISTSGGSTYYADSVKGRFTISRDNAKNTVYLQMNSLKPEDTAVYYCAADRPARSPKGSVDYWGQGTQVTVSS	high polyreactivity
QDQLVDTVGGLVQAGGSLRLSCAASGRTFWFYAMGWYRQAPGKESELVASITTGGGTNYADSVKGRFTISRDNAKITVYLQMNSLKPEDTAVYYCAVKRYHFGSGVDWYGGSSYGYWGQGTQVTVSS	high polyreactivity
QVQLVESGGCLVQAGGSLRLSCAASGLIFYGYAMGWYRQAPGKERELVAAITSGGSTNYADSVKGRFTISRDNAKNTVYLQMNSLKPEDTSFYYCNADVIYYYRAYPVYEYDYWGQGTQVTVSS	low polyreactivity
QVQLVESGGGLVQAGGSLRLSCAASGRTFHSYAMGWYRQAPGKERELVAVITRRGGSTYYADSVKGRFTISRDNAKNTVYLQMNSLKPEDTAVYYCNKGKSYTYDYWGQGTQVTVTS	high polyreactivity
QVQLVESGGGLVQAGGSLRLSCAASGITFFTYAMGWYRQAPGKERELVAAISGSGGSTYYADSVKGRFTISRDNAKNTVYLQMNSLKPEDTAVYYCATDTGYPYSYDLYDSYYWGQGTQVTVSS	low polyreactivity
QVQLQESGGGLVQAGGSLRLSCAASGPISRRSTMGWYRQAPGKERELVTAITRGTNTNYADSVKGRFTISRDNAKNTEYLQMNSLKPEDTAVFYCAAYGVLKPSRGDAVFHRYWGQGTQVTVSS	low polyreactivity
QVQLVESGGGLVQAGGSLRLICAASGSIFRRYAMGWYRQAPGKERELVARITIRGGSTYYADSVKGRFTISRDNAKNTVYLQMNSLKPEDTAVYYCNTVVPASSGGAYRRYYYLGQGTQVTVSS	high polyreactivity
QVQLVESGGGLVQAGGSLRLSCAASGSIFEWYAMGWYRQAPGKERELVADITYNGGSTYYADSVKGRFTISRDNAKNTVYLQMNSLKPEDTAVYYCAADYFVQVPDYYYASEYGYWGQATQVTVSS	low polyreactivity
QVQLVESGAGLVQAGGSLRVSCAASGSIFGKNAMGWYRQAPGKERELVAAITSSGGSTYYADSVKGRFTISRDNAKNTVYLQMNSLKPEDTAVYYCAARPWIWARAGYYWGQGTQVTVSS	high polyreactivity
QVQLVESGGGLVQAGGSLRLSSAASGITFGRNTMGWYRQAPGKEREFVAAIDSGGNTYADSVQGRFTISRDNAKNTVYLQMNSLKPEDTAVYYCAVAGGEFSSYGYLGQGTQVTVSS	low polyreactivity

Sequence	polyreactivity (PSR sort gate)
QVQLVESGGGLVQAGGSLRLSCAASGRILYWYAMGGYRQAPGKERELVAGIDWSGGSTYYADSVKGRFTISRDNAKNTVYLQMNSLKPEDTAVYYCNAVQNRGRGSHRGESTYYYWGQGTQVTVSS	low polyreactivity
QVQLVESGGGLVQAGGSLRLSCAASGFTFPWYTMGWYRQAPGKERELGAAINSRGGSTYYADSVKGRFTISRDNAKNTVYLQMNSLKPEDTAVYYCATRSFGRMDYWGQGTQVTVSS	high polyreactivity
QVHLVESGGGLVQAGGSLRLSCAASGSTFRLYAMRWNRQAPGKERELVASITFSDSNTSYADSVKGRFTISRDNAKNTVYLQMNSLKPEDTAVYYCAKETSYENVVYTFDYDYWGQGTQVTVSS	low polyreactivity
QVQLVESGGGLVQAGGSLRLSCAASGSTFRYYAMGWYRQAPGKEREFVAAITASGVTTYYADSVKGRFTISRDNAKNTVYLQMNSLKPEDTAVYYCAARLYYNYRGRYNYWGQGTQVTVSS	high polyreactivity
QVQLVESGGGLVQAGGSLRLSCAASGSIFAFYAMGRYRQAPGKERELVAAISYNGGSTYYADSVKGRFTISRDNAKNTVYLQMNSLKAEDTAVYYCAAYHFRAPSEYDYWGQGTQVTVSS	low polyreactivity
QVQLEESGGGLVQAGGSLRLSCAASGSTFGYYAMGWYRQAPGKERELVAAISWSGTRTYYADSVKGRFTISRDNAKNTVYLQMNSLKPEDTAVYYCAAVYRGSYRGSYRFDDSHYDYSGQGTQVTVSS	high polyreactivity
QVQLVESGGGLVQAGGSLRLSCAASGITFVYYTMGWYRQAPGKERELVASITWDGRSTYYADSVKGRFTISRDNAKNTVYLQMNSLKPEDTAVYYCNRDRVSGGKYNYWGQGTQVTVSS	low polyreactivity
QVQLVESGGGLVQAGGSLRLSCAASGFTLSRNAMGWYRQAPGKERELVAAISYSGARTYYADSVKGRFTISRDNAKNTVYLQMNRLKPEDTAVYYCAKVVPYPDYDYWGQGTQVTVSS	high polyreactivity
QVHLVESGGGLVQAGGSLRLSCAASGRIFGGNVMGWYIQAPGKERELVAAISWSSGSTYYADSVKVLFTISLDNAKNTVYLQMNSQKPDDTSFYYCAADNSFRGYHSPYDYWGQGTQVTVSS	low polyreactivity
QVQLVESGGGLVQAGGSLRLSCAASGRIFSWNAMGWYRQAPGKERELVARITWNGGRTYYADSVKGRFTISRDNAKNTVYLQMNSLKPEDTAVYYCNAERFDLTYNYWGQGTQVTVSS	high polyreactivity
QVQLVESGGGLVQAGGSLRLSCAASGSTFYDNAMGWYRQAPGKERELVARITWNGGRTYYADSVKGRFTISRDNAKNTVYLQMNSLKPEDTAVYYCNAVYWGYGKYDYWGQGTQVTVSS	high polyreactivity
QVQLVESGGGLVQAGGSLRLSCAASGSTFGVYTMGWYRQAPGKERELVAAITKSGGSTYYADSVKGRFTISRDNAKNTVYLQMNSLKPEDTAVYYCNTDYGRYLYYRYGYWGQGTQVTVSS	low polyreactivity
QGQLVESGGRLVQAGGSLRLSCAASGRIFGWYDMGWYREEPGKERELVAAINWSGGSTYYADSVKGRFTISRDNEKNTFYLQMNCLKPEDTAVYYCAADVAQVGYQVGVSEIYPGYEYWGQGTQVNVSS	low polyreactivity
QVQLVESGGGLVQAGGRLRLSCAASGSIFRSNVMGWYIQAPGKEREMVASITSGGITYADSVNGRFTISRDNAQNTVYLQMNSLKPEDTAVYYCDTVRRYAMSPYKGRYDYWGQGTQVTVSS	low polyreactivity
QVQLVESGGGLVQAGGSLRLSCAASGGIFWFYAMGWYRQAPGKERELVASIRSSDGGTYYADSVKGRFTISRDNAKNTVYLQMNSLKPEDTAVYYCAADQTYERHWVYYWGQGTQVTVSS	low polyreactivity
